B1: 39.29 scFvFc (scFv, V domains shown)
VH: VQLVESGGGVVQPGKSPRLSCAASGPTFSSYAVHWVRQAPGKGLEWVTLISYDGANQYYADSVKGRFTISRDNSKNTVYLQMNSLRPEDTAVYYCAVPGPVFGIFPPWSYFDNWGQGILVTVSS
VL: IVLTQSPATLSVSPGERATLSCRASQVISHNLAWYQQKPGQAPRLLIYGASTRASGIPARFSGSGSGTDYTLTITSLQPEDFAVYYCQHYSNWPPRLTFGGGTKVEIK
B2: F10 scFvFc (scFv, V domains shown)
VH: QVQLVQSGAEVKKPGSSVKVSCTSSEVTFSSFAISWVRQAPGQGLEWLGGISPMFGTPNYAQKFQGRVTITADQSTRTAYMDLRSLRSEDTAVYYCARSPSYICSGGTCVFDHWGQGTLVTVSS
VL: QPGLTQPPSVSKGLRQTATLTCTGNSNNVGNQGAAWLQQHQGHPPKLLSYRNNDRPSGISERFSASRSGNTASLTITGLQPEDEADYYCSTWDSSLSAVVFGGGTKLTVL
B3: 3I14-gHmL IgG1 (germline heavy chain, mature light chain) (antibody, V domains shown)
VH: QVQLVESGGGVVQPGRSLRLSCAASGFTFSSYGMHWVRQAPGKGLEWVAVISYDGSNKYYADSVKGRFTISRDNSKNTLYLQMNSLRAEDTAVYYCAKLPSPYYYDSRFVWVAASYFDYWGQGTLVTVSS
VL: NFMLTQPPSASGTPGQRVTISCSGSSSNIGGNTVHWFQQLPGTAPKLLIYTNSLRPSGVPDRFSGSKSGTSASLAISGLQSEDEADYYCAAWDDSLNGQVFGGGTKLTVL
B4: 3I14-mHgL IgG1 (mature heavy chain, germline light chain) (antibody, V domains shown)
VH: QVQLLESGGGVVQPGRSLRLSCAASGFTFSNYGMHWVRQAPGKGLEWVAIISFDGSKKYYANSVKGRSTISRDNSKNTLSLQMNSLGPEDTALYYCAKLPSPYYFDSRFVWVAASAFHFWGQGILVTVSS
VL: not shown

Legend:
Conditions in all cases: both partners purified
[1] = target: T1, Recombinant full-length HA of A/Vietnam/1203/04 (H5-VN04) (Influenza A virus A/Vietnam/1203/2004 …, UniProt Q5EP31); test: ELISA
[2] = target: T1, Recombinant full-length HA of …; test: BLI
[3] = target: Recombinant full-length HA of A/California/04/09 (H1-CA09) (influenza A virus A/California/04/09, UniProt C3W5S1); test: BLI

Binder | binding result [1] | Kd [2] [nM] | koff [2] [s⁻¹] | kon [2] [M⁻¹ s⁻¹] | Kd [3] [nM] | koff [3] [s⁻¹] | kon [3] [M⁻¹ s⁻¹]
B1 | binds |  |  |  |  |  | 
B2 | binds |  |  |  |  |  | 
B3 |  | 1.95 | 0.000844 | 434000 | < 0.001 | < 1e-07 | 155000
B4 |  |  |  |  | < 0.001 | < 1e-07 | 138000
